Results from patent US7182945.
Like-named read-outs stand apart in the source and are kept apart here.

T1: human leukocyte cathepsin G (hCG) (human), P08311
T1 chain: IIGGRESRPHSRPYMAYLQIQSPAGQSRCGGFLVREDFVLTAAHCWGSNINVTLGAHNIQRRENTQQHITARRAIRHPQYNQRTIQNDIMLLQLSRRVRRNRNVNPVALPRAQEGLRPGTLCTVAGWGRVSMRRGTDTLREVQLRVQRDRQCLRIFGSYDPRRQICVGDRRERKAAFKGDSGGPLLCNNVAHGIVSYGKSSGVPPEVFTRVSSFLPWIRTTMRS

T2: human leukocyte elastase (hLE) (human), P08246
T2 chain: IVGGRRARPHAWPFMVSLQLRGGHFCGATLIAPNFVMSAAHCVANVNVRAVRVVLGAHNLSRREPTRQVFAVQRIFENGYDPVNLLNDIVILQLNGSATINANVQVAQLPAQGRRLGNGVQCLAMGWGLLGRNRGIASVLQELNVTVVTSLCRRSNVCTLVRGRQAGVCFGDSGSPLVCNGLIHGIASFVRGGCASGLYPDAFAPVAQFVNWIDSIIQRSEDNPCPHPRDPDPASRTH


Experiments:
Settings in all cases: modification not given
[1] = target: T1, human leukocyte cathepsin G (hCG) …; test: other enzyme inhibition
[2] = target: T2, human leukocyte elastase (hLE) (human), …
[3] = target: T2, human leukocyte elastase (hLE) (human), …
[4] = target: T2, human leukocyte elastase (hLE) (human), …
[5] = target: T2, human leukocyte elastase (hLE) (human), …
[6] = target: T2, human leukocyte elastase (hLE) (human), …
[7] = target: T2, human leukocyte elastase (hLE) (human), …
[8] = target: T2, human leukocyte elastase (hLE) (human), …
[9] = target: T2, human leukocyte elastase (hLE) (human), …
[10] = target: T2, human leukocyte elastase (hLE) (human), …
[11] = target: T2, human leukocyte elastase (hLE) (human), …; test: other enzyme inhibition
[12] = target: T2, human leukocyte elastase (hLE) (human), …
[13] = target: T2, human leukocyte elastase (hLE) (human), …
[14] = target: T2, human leukocyte elastase (hLE) (human), …
[15] = target: T2, human leukocyte elastase (hLE) (human), …

Binder	Ki [1] [µM]	further results
WSKDIGYSFTVGGSE [CRP67-81 (peptide 7)]	> 200	
VGGSEILFEVPEVTV [CRP77-91 (peptide 9)]	> 200	
ILFEVPEVTVAPVHI [CRP82-96 (peptide 10)]	150	Ki [3]: 55 µM
EILIFWSADI [peptide 25]		Ki [4]: 3 µM
EILIFWSVDI [peptide 26]		Ki [5]: 2 µM
FSYATKRQDNEILIF [CRP52-66 (peptide 4)]	> 200	
TFSYGIDKSWFILIE [peptide 24]		Ki [9]: 10 µM
GYSFTVGGSEILFEV [CRP72-86 (peptide 8)]	> 200	
KRQDNEILIFWSKDI [CRP57-71 (peptide 5)]	180	Ki [10]: 85 µM
LHFYTELSSTRGYSI [CRP37-51 (peptide 1)]		Ki [11]: > 200 µM

Further lines, with some results ahead:

Ki [1] [µM]	Binder	further results
4	EILIFWSKDIGY [CRP62-73 (peptide 13)]	Ki [2]: 1.1 µM
6	EILIFWSKDI [CRP62-71 (peptide 14)]	Ki [6]: 6.7 µM
5.5	ATKRQDNEILIFWSKDIGYSFTVGGSEIL [CRP55-83 (peptide 17)]	Ki [7]: 7.3 µM
0.25	EILIFWSKDIGYSFT [CRP62-76 (peptide 6)]	Ki [8]: 0.18 µM
30	EILIFWPKDIGYSFT [peptide 19]	
15	ILIFWSKDIGYSFT [CRP63-76 (peptide 11)]	Ki [12]: 4.5 µM
5.5	EILIFWSKAIGYSFT [peptide 22]	Ki [13]: 3 µM
0.85	EILIFWSKEIGYSFT [peptide 23]	Ki [14]: 0.55 µM
2.6	DILIFWSKDIGYSFT [peptide 18]	Ki [15]: 2.2 µM
